Source: paper PMC11090050

Target: MBP-Rubicon RH (Rubicon Homology domain of Rubicon, wild type) (UniProt Q92622)
Experiment: ITC; MBP-Rubicon RH (80 µM) in the chamber, RAB7A (800 µM) in the syringe; 13 injections at 25°C; 50 mM HEPES 7.5, 150 mM NaCl, 2 mM MgCl2, 10 mM TCEP; simple single-binding-site fit

Sequence of UniProt Q92622 (Q92622 699-949): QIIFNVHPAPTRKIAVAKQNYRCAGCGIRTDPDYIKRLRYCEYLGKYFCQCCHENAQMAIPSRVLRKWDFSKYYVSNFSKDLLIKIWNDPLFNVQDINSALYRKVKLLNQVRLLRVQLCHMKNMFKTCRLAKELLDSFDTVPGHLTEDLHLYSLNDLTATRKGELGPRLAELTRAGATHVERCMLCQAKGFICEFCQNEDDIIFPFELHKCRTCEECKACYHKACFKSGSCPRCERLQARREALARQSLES

Kd: 1700 nM
stoichiometry N: 0.7
Substance: RAB7A (recombinantly purified, unlabelled, as used for ITC) (from UniProt P51149 2-182) (natural protein)
